6 molecules from article PMC5095173, “Disulfide-activated protein kinase G Iα regulates cardiac diastolic relaxation and fine-tunes the Frank–Starling response” (Nature Communications, 2016) can be followed below.

Assay [1] has as its system PKGIα (analogue-sensitive M438G), disulfide-activated. The assay can be described thus: Chemical genetic phosphoproteomic screen, disulfide-activated PKGIα M438G versus unactivated control. Type of assay: biochemical, human PKGIα; substrates in rat heart homogenate. The note with it: for Log2 fold change in phosphorylation, Disulfide versus control: n=4. The source says: (§1) We employed a chemical genetic method[18] to identify direct substrates of cGMP-activated PKGIα and disulfide bond-activated PKGIα in heart tissue. This method involves mutation of the ATP binding-site of the kinase of interest so that it can accept a ‘bulky' N6-alkylated ATP analogue for example, N6^−phenylethyl ATP. An oxygen atom on the γ phosphate is also replaced with a sulfur atom—giving an N6-alkylated ATPγS analogue—so that the mutant kinase catalyses the transfer of a thiophosphate group (–PO3S^3−) to its substrates instead of a phosphate. The thiophosphate group is nucleophilic, providing a basis for substrates of the analogue-sensitive kinase to be purified by a ‘covalent capture' protocol. LC–MS/MS allows identification of the substrate and localization of the phosphorylation site. Thiophosphorylated proteins can also be detected with a thiophosphate ester-specific antibody. Analogue-sensitive mutants of PKGIα and PKGIα C42S (which cannot form the activating intermolecular disulfide bond) were generated by mutating Met438 in the ATP-binding domain to Gly. This mutation was chosen based on a previous study where an analogue-sensitive mutant of the catalytic subunit of PKA—which shares sequence homology with PKGIα—was engineered. Detailed protocols are given below.
(§2) A pCDNA3 expression vector encoding human FLAG-tagged PKGIα (ref. [41]) underwent site-directed mutagenesis to generate constructs for untagged WT, C42S, M438G and C42S/M438G PKGIα. Mutations were introduced using the QuikChange II Site-Directed Mutagenesis Kit (Agilent) according to the manufacturer's instructions. Expression and purification of the PKGIα mutants was performed according to a published method[42] as follows: suspension FreeStyle 293-F cells (ThermoFisher Scientific) were transfected with the appropriate PKGIα construct using the stable cationic polymer polyethyleneimine (PEI) as a transfection reagent. After ∼72 h cells were harvested by centrifugation (400g; room temperature; 15 min), re-suspended in ice cold lysis buffer (25 mM sodium phosphate buffer pH 6.8; 10 mM ethylenediaminetetraacetic acid (EDTA); 100 mM NaCl; 10 mM benzamidine hydrochloride; and 10 mM dithiothreitol (DTT)) and frozen in liquid N2. Cells were lysed by three freeze (liquid N2)-thaw (37 °C) cycles and the lysate was clarified by centrifugation at 140,000g and 4 °C for 30 min. The soluble protein fraction was loaded onto a pre-equilibrated 8-(2-aminoethylamino)adenosine-3′, 5′-cyclic monophosphate column (8-AEA-cAMP agarose; BioLog, Germany) followed by washing with 20 column volumes of lysis buffer. The column was further washed with lysis buffer +3 M NaCl (5 column volumes) and PKGIα was then eluted with lysis buffer +150 mM NaCl and 500 μM cAMP. Removal of cAMP and buffer exchange was achieved by extensive dialysis against 25 mM sodium phosphate buffer pH 6.8, 2 mM EDTA and 100 mM NaCl. For ITC analysis, WT PKGIα was incubated with 10 mM lipoic acid for 2 h on ice to obtain ∼100% disulfide dimer (confirmed by SDS-PAGE). Oxidized WT or C42S PKGIα was further purified by size exclusion chromatography using a HiLoad 16/600 Superdex 200 pg column (GE Healthcare) with 50 mM sodium phosphate buffer pH 7.4 and 100 mM NaCl. Proteins were concentrated using Amicon Ultra centrifugal filter devices (Merck Millipore). DTT was absent in storage buffers so that the activating disulfide bond would not be reduced and so that the PKGIα M438G mutant would be oxidized to disulfide dimer in the presence of air (confirmed by SDS-PAGE). Protein concentration was determined by Pierce BCA assay (ThermoFisher) and enzyme activity was confirmed using the Omnia kinase assay kit (ThermoFisher).
(§3) Male Wistar rats (9–10 weeks; body weight 300–330 g) were euthanized by intraperitoneal injection of sodium pentobarbitone (200 mg kg^−1) with heparin (500 USP units). […]

The subject of assay [2] is PKGIα (analogue-sensitive C42S/M438G), cGMP-activated. The assay can be described thus: Chemical genetic phosphoproteomic screen, cGMP-activated PKGIα C42S/M438G versus unactivated control. The settings on record: n=4. It counts as biochemical, human PKGIα; substrates in rat heart homogenate.
Text: as §1, §2, §3

[3] abbreviates: disulfide-activated PKGIα M438G vs basal, 1 h, 30 °C, pH 7.5, rat heart homogenate, label-free LC–MS/MS, * P<0.05 Dunnett: only phospholamban S16.
The mark [4] stands for this setting: PKGIα C42S/M438G + 100 μM cGMP vs basal, 1 h, 30 °C, pH 7.5, rat heart homogenate, label-free LC–MS/MS, * P<0.05 Dunnett: all values except phospholamban S16.

Where “and” joins values, the source holds several entries; their conditions need not be identical. Equal entries are not always repeated.

B1: Cytoplasmic dynein 1 light intermediate chain 1: PKGIα substrate, phospho sites T408 (r11) and S412 (r12) (protein, UniProt Q9QXU8 1-523, looked up)
Cytoplasmic dynein 1 light …: MAAVGRVGSFGSSPPGLASTYASGPLANELASGSGGPAAGDDEDGQNLWSRILREVSTRSRSKLPTGKNVLLLGEDGAGKTSLIRRIQGIEEYKKGRGLEYLYLNVHDEDRDDQTRCNVWILDGDLYHKGLLKFSLDALSLRDTLVMLVVDMSKPWTALDSLQKWASVVREHVDKLKIPPEEMKEMEQKLIRDFQEYVEPGEDFPASPQRRATAAQEDRDDSVVLPLGADTLTHNLGLPVLVVCTKCDAISVLEKEHDYRDEHFDFIQSHIRKFCLQYGAALIYTSVKENKNIDLVYKYIVQKLYGFPYKIPAVVVEKDAVFIPAGWDNDKKIGILHENFQTLKIEDNFEDIITKPPVRKFVHEKEIMAEDDQVFLMKLQSLLAKQPPTAAGRPVDASPRVPGGSPRTPNRSVSSNVASVSPIPAGSKKIDPNMKAGATSEGVLANFFNSLLSKKTGSPGGPGVGGSPGGGAAGASTSLPPSAKKSGQKPVLSDVHAELDRITRKPASVSPTTPPSPTEGEAS
modifications: phosphorylated at T408 and S412
In the case of B1, the “Log2 fold change in phosphorylation, Disulfide versus control” value is listed as 1.95 in assay [1] (setting [3]) and 1.66 in assay [1] (phospho site S412 (second site of this protein), not significant). Also, the “Log2 fold change in phosphorylation, cGMP versus control” value (from here on “Log2 fold change … cGMP versus control”) in assay [2] (setting [4]) is 3.76*; in assay [2] (phospho site S412 (second site of this protein), * P<0.05), 4.15*.

B2: Lyrm1 pS110 (protein, UniProt B2RYU8 1-122, looked up)
LYR motif-containing protein 1: MTAASRQEVLGLYRSFFRLARKWQAASGQMEDTIKEKQYILNEARTLFQKNKNLTDPDLIKQCIDECTARIEIGLHYQIPYPRPIHLPPMGLTPRRGRGLQTQEKLRKFSKPLYLKSHDEVS
modifications: phosphorylated at S110
Regarding B2, the “log2 fold change Disulfide vs Control” value in assay [1] (control = PKGIα C42S/M438G) was 0.4439 and 0.5384.

B3: Heat shock protein beta-6: PKGIα substrate, phospho site S16 (protein, UniProt P97541 1-162, looked up)
Heat shock protein beta-6: MEIRVPVQPSWLRRASAPLPGFSTPGRLFDQRFGEGLLEAELASLCPAAIAPYYLRAPSVALPTAQVPTDPGYFSVLLDVKHFSPEEISVKVVGDHVEVHARHEERPDEHGFIAREFHRRYRLPPGVDPAAVTSALSPEGVLSIQATPASAQASLPSPPAAK
modifications: phosphorylated at S16
Turning to B3, in assay [1] (setting [3]), the “Log2 fold change in phosphorylation, Disulfide versus control” value turned out to be 1.25. Moreover, the “Log2 fold change … cGMP versus control” value in assay [2] (setting [4]) is listed as 2.61*.

B4: Histone H1.4: PKGIα substrate, phospho site S36 (protein, UniProt P43274 2-219, looked up)
Histone H1.4: SETAPAAPAAPAPAEKTPVKKKARKAAGGAKRKTSGPPVSELITKAVAASKERSGVSLAALKKALAAAGYDVEKNNSRIKLGLKSLVSKGTLVQTKGTGASGSFKLNKKAASGEAKPKAKRAGAAKAKKPAGAAKKPKKAAGTATAKKSTKKTPKKAKKPAAAAGAKKAKSPKKAKATKAKKAPKSPAKAKTVKPKAAKPKTSKPKAAKPKKTAAKKK
modifications: phosphorylated at S36
Regarding B4, in assay [1] (setting [3]), the “Log2 fold change in phosphorylation, Disulfide versus control” value turned out to be 0.48. Further, the “Log2 fold change … cGMP versus control” value in assay [2] (setting [4]) is 1.30*.

B5: G-protein-signaling modulator 1: PKGIα substrate, phospho site S567 (protein, UniProt Q9R080 1-673, looked up)
G-protein-signaling modulator …: MASPAPPAAEELPGPAARRLYSRMEASCLELALEGERLCKAGDFKAGVAFFEAAVQVGTEDLKTLSAIYSQLGNAYFYLKEYARALQFHKHDLLLARTIGDRMGEAKASGNLGNTLKVLGRFDEAIVCCQRHLDIAQEQGDKVGEARALYNIGNVYHAKGKQLSWNAAQDPGHLPPDVRETLHRASEFYERNLSLVKELGDRAAQGRAYGNLGNTHYLLGNFTEATTFHKERLAIAKEFGDKAAERRAYSNLGNAHIFLGRFDVAAEHYKKTLQLSRQIRDQAVEAQACYSLGNTYTLLQDYERAAEYHLRHLVIAQELADRVGEGRACWSLGNAYVSMGSPAQALTFAKKHLQISQEIGDRNGELTARMNIAHLQLALGRLTSPAAAEKPDLAGYEAQGARPKRTQRLSAETWDLLRLPLDREQNGETHHTGDWRGPSRDSLPLPMRSRKYQEGPDAIERRPREGSHSPLDSADVRVQVPRTGIPRAPSSDEECFFDLLSKFQSSRMDDQRCPLEEGQAGAAEATAAPTLEERAAQPSVTASPQTEEFFDLIASSQSRRLDDQRASVGSLPGLRITLNNVGHLRGDGDPQEPGDEFFNMLIKYQSSRIDDQRCPPPDVLPRGPTMPDEDFFSLIQRVQAKRMDEQRVDLAGSPDQEASGLPDPRQQCPPGAS
modifications: phosphorylated at S567
As for B5, the “Log2 fold change in phosphorylation, Disulfide versus control” value in assay [1] (setting [3]) is on record as 1.04. Moreover, the “Log2 fold change … cGMP versus control” value in assay [2] (setting [4]) is listed as 2.93*.

B6: CLIP-associating protein 2: PKGIα substrate, phospho site S436 (protein, UniProt Q99JD4 1-1286, looked up)
CLIP-associating protein 2: MRRLICKRICDYKSFDDEESVDGNRPSSAASAFKVPAPKTPGNPVNSARKPGSAGGPKAGGTSKEGGAGAVDEDDFIKAFTDVPSIQIYSSRELEETLNKIREILSDDKHDWDQRANALKKIRSLLVAGAAQYDCFFQHLRLLDGALKLSAKDLRSQVVREACITVAHLSTVLGNKFDHGAEAIVPTLFNLVPNSAKVMATSGCAAIRFIIRHTHVPRLIPLITSNCTSKSVPVRRRSFEFLDLLLQEWQTHSLERHAAVLVETIKKGIHDADAEARVEARKTYMGLRNHFPGEAETLYNSLEPSYQKSLQTYLKSSGSVASLPQSDRSSSSSQESLNRPFSSKWSTANPSAVAGRVSVGGSKASPLPGSLQRSRSDIDVNAAAGAKAHHAAGQAVRSGRLGAGALNPGSYASLEDTSDKMDGTASEDGRVRAKLSTPLVAVGNAKTDSRGRSRTKMVSQSQPGSRSGSPGRVLTTTALSTVSSGAQRILVNSASAQKRSKIPRSQGCSREASPSRLSVARSSRIPRPSVSQGCSREASRESSRDTSPVRSFQPLGPGYGMSQSSRLSSSVSAMRVLNTGSDVEEAVADALLLGDIRTKKKPARRRYESYGMHSDDDANSDASSACSERSYSSRNGSIPTYMRQTEDVAEVLNRCASSNWSERKEGLLGLQNLLKNQRTLSRVELKRLCEIFTRMFADPHGKVFSMFLETLVDFIQVHKDDLQDWLFVLLTQLLKKMGADLLGSVQAKVQKALDVTRESFPNDLQFNILMRFTVDQTQTPSLKVKVAILKYIETLAKQMDPGDFINSSETRLAVSRVITWTTEPKSSDVRKAAQSVLISLFELNTPEFTMLLGALPKTFQDGATKLLHNHLRNTGNGTQSSMGSPLTRPTPRSPANWSSPLTSPTNTSQNTLSPSAFDYDTENMNSEDIYSSLRGVTEAIQNFSFRSQEDMSEPLKRDPKKEDGDTVCSGPGMSDPRAGGDAPDSSQPALDNKASLLHSVPLHSSPRSRDYNPYNYSDSISPFNKSALKEAMFDDDADQFPDDLSLDHSDLVAELLKELSNHNERIEERKIALYELMKLTQEESFSVWDEHFKTILLLLLETLGDKEPTIRALALKVLKEILRHQPARFKNYAELTVMKTLEAHKDPHKEVVRSAEEAASVLATSISPEQCIKVLCPIIQTADYPINLAAIKMQTKVIERVSKETLNLLLPEIMPGLIQGYDNSESSVRKACVFCLVAVHAVIGDELKPHLSQLTGSKMKLLNLYIKRAQTGSAGADPTTDVSGQS
modifications: phosphorylated at S436
For the molecule B6, the “Log2 fold change in phosphorylation, Disulfide versus control” value in assay [1] (setting [3]) is on record as 0.86. Moreover, in assay [2] (setting [4]), the “Log2 fold change … cGMP versus control” value was 1.79*.
